Assay results reported in patent publication EP4471048A1, “PEPTIDE INHIBITORS OF INTERLEUKIN-23 RECEPTOR” (Zealand Pharma A/S, priority 2023, dated 2024).
Where two headings read alike, the source gives them in different places. *1 amine or outer side, *2 acyl side, *3 side chain or, on linkers, in order; H or OH if unused. Bridges are numbered along the chain shown (N, C = ends). [ ]: non-standard residue; d: D form. The star is where a group is joined. K(G) = Lys(Gly): lysine with a glycine on the side-chain amine, (2S)-2-amino-6-[(2-aminoacetyl)amino]hexanoic acid, O=C(CN[*:3])NCCCC[C@H](N[*:1])C(=O)[*:2]; 4‑Aminomethyl‑phenylacetyl = 4-aminomethyl-phenylacetyl unit, its amine closes the lactam, O=C(Cc1ccc(CN[*:1])cc1)[*:2]; γDab = iso-Dab: Dab joined to preceding residue by its side-chain amine, O=C([C@H](CCN[*:1])N[*:3])[*:2]; Q(pyrrolidin) = modified Gln, O=C(CC[C@H](N[*:1])C(=O)[*:2])N1CCCC1; 2‑Amino‑6‑carboxyhexanoyl = 2-aminoheptanedioic acid residue; Propanoyl(3-(3-pyridyl)) = O=C(CCc1cccnc1)*; NH(4-(3-pyridyl)butyl) = c1cncc(CCCCN*)c1; NH(2-(3-pyridyl)ethyl) = c1cncc(CCN*)c1; Phe(4-Me) = Cc1ccc(C[C@H](N)C(=O)O)cc1; 2Nal = N[C@@H](Cc1ccc2ccccc2c1)C(=O)O; AEF = NCCOc1ccc(C[C@H](N)C(=O)O)cc1; 3Pal = N[C@@H](Cc1cccnc1)C(=O)O; β3hE = N[C@@H](CCC(=O)O)CC(=O)O; Aad = N[C@@H](CCCC(=O)O)C(=O)O; αMeL = CC(C)C[C@](C)(N)C(=O)O; dOrn = NCCC[C@@H](N)C(=O)O; dDab = NCC[C@@H](N)C(=O)O; Orn = NCCC[C@H](N)C(=O)O; Dab = NCC[C@H](N)C(=O)O; βAla = NCCC(=O)O

Tests used:
[1] = molecular target: human IL-23R endogenously expressed on DB cells (human) (UniProt Q5VWK5); experiment: cell-based or functional assay
[2] = molecular target: T1, Nluc-IL23R fusion protein (human, UniProt Q5VWK5 22-629); experiment: BRET competition vs TAMRA-labelled peptide, Nluc-IL23R membranes
T1 construct: range 22-629; Stably expressed in HEK293 cells; also called hIL-23R; human IL-23R; not shown: Nanoluc protein (N1371, Promega) at the N-terminus, after a secretion signal
T1 sequence (looked up): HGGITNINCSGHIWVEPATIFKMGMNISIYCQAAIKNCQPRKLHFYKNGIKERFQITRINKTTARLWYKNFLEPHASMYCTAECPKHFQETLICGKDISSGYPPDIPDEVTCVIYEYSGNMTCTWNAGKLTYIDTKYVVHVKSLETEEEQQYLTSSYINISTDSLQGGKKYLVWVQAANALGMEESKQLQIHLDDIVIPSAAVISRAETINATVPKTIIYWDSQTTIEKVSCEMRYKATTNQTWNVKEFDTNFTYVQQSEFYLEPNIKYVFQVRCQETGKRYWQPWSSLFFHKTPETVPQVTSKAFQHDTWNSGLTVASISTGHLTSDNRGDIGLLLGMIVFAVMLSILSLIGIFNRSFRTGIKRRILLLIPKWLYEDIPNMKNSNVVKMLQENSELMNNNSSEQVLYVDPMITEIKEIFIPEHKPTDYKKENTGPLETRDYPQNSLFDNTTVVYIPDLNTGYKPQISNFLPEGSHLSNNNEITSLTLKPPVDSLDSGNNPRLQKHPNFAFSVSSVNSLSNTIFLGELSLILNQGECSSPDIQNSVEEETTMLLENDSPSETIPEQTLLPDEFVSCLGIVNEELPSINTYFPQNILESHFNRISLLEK

[3] = molecular target: T2, human IL-23R endogenously expressed on DB cells (human, UniProt Q5VWK5 24-629); experiment: cell-based or functional assay
T2 sequence (looked up): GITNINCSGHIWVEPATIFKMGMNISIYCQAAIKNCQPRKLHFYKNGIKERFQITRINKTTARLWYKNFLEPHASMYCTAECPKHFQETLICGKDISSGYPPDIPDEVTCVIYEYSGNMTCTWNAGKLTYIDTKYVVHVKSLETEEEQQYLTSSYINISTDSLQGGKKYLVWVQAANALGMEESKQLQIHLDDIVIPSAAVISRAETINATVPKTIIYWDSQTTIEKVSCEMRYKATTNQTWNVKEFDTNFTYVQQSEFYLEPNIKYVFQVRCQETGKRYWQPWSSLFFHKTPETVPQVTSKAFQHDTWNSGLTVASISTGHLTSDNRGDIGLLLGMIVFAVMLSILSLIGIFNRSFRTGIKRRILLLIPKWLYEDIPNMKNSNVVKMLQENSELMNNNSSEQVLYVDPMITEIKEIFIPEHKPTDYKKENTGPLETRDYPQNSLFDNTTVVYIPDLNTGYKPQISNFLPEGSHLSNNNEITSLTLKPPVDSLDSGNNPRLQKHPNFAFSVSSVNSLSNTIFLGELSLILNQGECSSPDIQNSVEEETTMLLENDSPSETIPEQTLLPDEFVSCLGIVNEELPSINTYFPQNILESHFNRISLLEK

[4] = molecular target: T1, Nluc-IL23R fusion protein; experiment: BRET competition vs TAMRA-labelled peptide, Nluc-IL23R membranes; remark: listed apart in the source
[5] = molecular target: T1, Nluc-IL23R fusion protein; experiment: BRET competition vs TAMRA-labelled peptide, Nluc-IL23R membranes; Ki by Cheng-Prusoff

human IL-23 (from UniProt Q9NPF7 20-189; P29460 23-328) (ligand)
EC80 of hIL-23 (phospho-STAT3 in DB cells) [1]: 1.7 nM

B1: Compound 74 (peptide)
peptide: EIVWQEXXXXXX
modifications: E(1c)(6c)^†IVWQE(6c)[Y(2-aminoethoxy)][2-Nal][2-Me-Leu][K(Me)](1c)[Dab][3-(3-Pyridyl)-Ala]-[NHMe]; (1c) [2,11] lactam; (6c) [2,7] lactam; ^† alpha-amine in bridge
% displacement [2]: 99%
IC50 [2]: 0.076 nM

[dDab]TVWQE[AEF][2Nal][αMeL][2‑Amino‑6‑carboxyhexanoyl][Dab][3Pal]-NH2 (lactam 1-10, N-6) [Compound 7]
% displacement [2]: 104%
hIL-23 (pSTAT3) antagonist % inhibition [3]: 99%
hIL-23 (pSTAT3) antagonist IC50 [3]: 0.19 nM

B2: Compound 44 (peptide)
peptide: KGWQE[AEF][2Nal][αMeL]E[Dab][3Pal]-NHMe
modifications: lactam 1-9, N-5
SMILES: CNC(=O)[C@H](Cc1cccnc1)NC(=O)[C@H](CCN)NC(=O)[C@@H]1CCC(=O)NCCCC[C@@H]2NC(=O)CC[C@H](NC(=O)[C@H](CCC(N)=O)NC(=O)[C@H](Cc3c[nH]c4ccccc34)NC(=O)CNC2=O)C(=O)N[C@@H](Cc2ccc(OCCN)cc2)C(=O)N[C@@H](Cc2ccc3ccccc3c2)C(=O)N[C@@](C)(CC(C)C)C(=O)N1
% displacement [4]: 100%
hIL-23 (pSTAT3) antagonist % inhibition [3]: 100%
hIL-23 (pSTAT3) antagonist IC50 [3]: 15 nM

ETWQE[AEF][2Nal][αMeL][Orn][Dab][3Pal]-NHMe (lactam 1-9, N-5) [Compound 40]
% displacement [2]: 100%

B3: Compound 107 (peptide)
peptide: EWQEXXXXXX
modifications: [iso-Glu](1c)^‡(6c)^†WQE(6c)[Y(2-aminoethoxy)][2-Nal][2-Me-Leu][Dab](1c)[Dab][3-(3-Pyridyl)-Ala]-[NHMe]; (1c) [2,11] lactam; (6c) [2,7] lactam; ^† alpha-amine in bridge; ^‡ alpha-carboxylic acid in bridge
% displacement [2]: 97%
IC50 [2]: 14 nM

B4: Compound 46 (peptide)
peptide: [K(G)]WQE[AEF][2Nal][αMeL]E[Dab][3Pal]-NHMe
modifications: lactam 1-8, N-4
SMILES: CNC(=O)[C@H](Cc1cccnc1)NC(=O)[C@H](CCN)NC(=O)[C@@H]1CCC(=O)NCC(=O)NCCCC[C@@H]2NC(=O)CC[C@H](NC(=O)[C@H](CCC(N)=O)NC(=O)[C@H](Cc3c[nH]c4ccccc34)NC2=O)C(=O)N[C@@H](Cc2ccc(OCCN)cc2)C(=O)N[C@@H](Cc2ccc3ccccc3c2)C(=O)N[C@@](C)(CC(C)C)C(=O)N1
% displacement [4]: 104%
hIL-23 (pSTAT3) antagonist % inhibition [3]: 102%
hIL-23 (pSTAT3) antagonist IC50 [3]: 25 nM

B5: Compound C (peptide)
peptide: XQTWQCXWXENG
modifications: [Ac]-[Abu](16i)QTWQC(16i)[Y(2-aminoethoxy)]W[2-Me-Lys]ENG-[NH2]; (16i) [2,7] thioether bridge (Abu and Cys form a cystathionine)
% displacement [2]: 102%
hIL-23 (pSTAT3) antagonist % inhibition [3]: 99%
hIL-23 (pSTAT3) antagonist IC50 [3]: 13 nM

B6: Compound 45 (peptide)
peptide: K[βAla]WQE[AEF][2Nal][αMeL]E[Dab][3Pal]-NHMe
modifications: lactam 1-9, N-5
SMILES: CNC(=O)[C@H](Cc1cccnc1)NC(=O)[C@H](CCN)NC(=O)[C@@H]1CCC(=O)NCCCC[C@@H]2NC(=O)CC[C@H](NC(=O)[C@H](CCC(N)=O)NC(=O)[C@H](Cc3c[nH]c4ccccc34)NC(=O)CCNC2=O)C(=O)N[C@@H](Cc2ccc(OCCN)cc2)C(=O)N[C@@H](Cc2ccc3ccccc3c2)C(=O)N[C@@](C)(CC(C)C)C(=O)N1
% displacement [4]: 100%
hIL-23 (pSTAT3) antagonist % inhibition [3]: 100%
hIL-23 (pSTAT3) antagonist IC50 [3]: 0.058 nM

B7: Compound 31 (peptide)
peptide: KSVWQE[AEF][2Nal]GE-{NH(4-(3-pyridyl)butyl)}
modifications: lactam 1-10, N-6
SMILES: CC(C)[C@@H]1NC(=O)[C@H](CO)NC(=O)[C@@H]2CCCCNC(=O)CC[C@@H](C(=O)NCCCCc3cccnc3)NC(=O)CNC(=O)[C@H](Cc3ccc4ccccc4c3)NC(=O)[C@H](Cc3ccc(OCCN)cc3)NC(=O)[C@H](CCC(=O)N2)NC(=O)[C@H](CCC(N)=O)NC(=O)[C@H](Cc2c[nH]c3ccccc23)NC1=O
% displacement [2]: 98%
IC50 [2]: 49 nM

[4‑Aminomethyl‑phenylacetyl]SEW[Q(pyrrolidin)][Dab][AEF][2Nal][αMeL]E[Dab]-NH2 (lactam N-10; bridge 3-6; also: (2c) bridge type not defined) [Ref 146]
Ki [5]: 1.01 nM
% displacement [4]: 105%
IC50 [4]: 1.2 nM
hIL-23 (pSTAT3) antagonist % inhibition [3]: 98%
hIL-23 (pSTAT3) antagonist IC50 [3]: 42 nM

B8: Compound 6 (peptide)
peptide: [dOrn]TVWQE[AEF][2Nal][αMeL][Aad][Dab][3Pal]-NH2
modifications: lactam 1-10, N-6
SMILES: CC(C)C[C@]1(C)NC(=O)[C@H](Cc2ccc3ccccc3c2)NC(=O)[C@H](Cc2ccc(OCCN)cc2)NC(=O)[C@@H]2CCC(=O)N[C@H](CCCNC(=O)CCC[C@@H](C(=O)N[C@@H](CCN)C(=O)N[C@@H](Cc3cccnc3)C(N)=O)NC1=O)C(=O)N[C@@H]([C@@H](C)O)C(=O)N[C@@H](C(C)C)C(=O)N[C@@H](Cc1c[nH]c3ccccc13)C(=O)N[C@@H](CCC(N)=O)C(=O)N2
% displacement [2]: 104%
hIL-23 (pSTAT3) antagonist % inhibition [3]: 104%
hIL-23 (pSTAT3) antagonist IC50 [3]: 0.22 nM

[dDab]TVWQD[AEF][2Nal][αMeL][2‑Amino‑6‑carboxyhexanoyl][Dab][3Pal]-NH2 (lactam 1-10, N-6) [Compound 9]
% displacement [2]: 103%

[dDab]TWQD[AEF][2Nal][αMeL][2‑Amino‑6‑carboxyhexanoyl][Dab][3Pal]-NH2 (lactam 1-9, N-5) [Compound 15]
% displacement [2]: 105%
IC50 [2]: 4.9 nM

B9: Compound 61 (peptide)
peptide: KIVWQE[AEF][2Nal][αMeL][β3hE][3Pal]-NHMe
modifications: lactam 1-10, N-6
notes: The partner of the (1c) bridge is printed as (cyclo1)
% displacement [2]: 99%

B10: Compound 25 (peptide)
peptide: KTVWQE[Phe(4-Me)][2Nal][αMeL][γDab](6‑(3-pyridyl)hexanoyl)
modifications: lactam 1-C, N-6; also: iso-Dab joined to preceding residue via its side-chain amine
% displacement [2]: 91%
IC50 [2]: 840 nM

B11: Compound 24 (peptide)
peptide: KTVWQE[Phe(4-Me)][2Nal][αMeL][γDab](Propanoyl(3-(3-pyridyl)))
modifications: lactam 1-C, N-6; also: iso-Dab joined to preceding residue via its side-chain amine
% displacement [2]: 96%
IC50 [2]: 280 nM
hIL-23 (pSTAT3) antagonist % inhibition [3]: 99%
hIL-23 (pSTAT3) antagonist IC50 [3]: 100 nM

KIVWQE[AEF][2Nal][αMeL][β3hE]-{NH(2-(3-pyridyl)ethyl)} (lactam 1-10, N-6) [Compound 65]
% displacement [2]: 99%
